Assay results published in article doi:10.1101/2020.04.21.032086.

Target: LgBiT-tagged human CXCR4 receptor (UniProt P61073)
Assay: split reporter

koff: 0.00367 s⁻¹ | kon: 10000 M⁻¹ s⁻¹ | pKD: 6.43
Binder: VSGWRLFKKIS [purified HiBiT-HaloTag fusion protein]
